Laboratory results from patent US20080020984A1, “Crystal Structure of a Receptor-Ligand Complex and Methods of Use” (priority 2006, published 2008).
Changes are numbered by the printed parent chain. Where a SMILES comes first, the peptide text is derived from it. Where no end group is shown, it is not given here. The star is where a group is joined. X1 = CC1N=c2c(cc3c(c2S(=O)(=O)O)Oc2c(cc4c(c2S(=O)(=O)O)NC(C)C4(C)C)C=3c2ccc(C(=O)*)cc2)C1(C)C

How the values were obtained:
EphB4 K149Q = molecular target: T1, EphB4 K149Q (Homo sapiens, UniProt P54760, K149Q); experiment: Fluorescence polarization binding of Alexa-532-TNYL-RAW, EphB4 K149Q; conditions: FP; EphB4 mutant Lys149Gln
T1 construct: GP64 signal peptide (N, cleaved yes); made in house; host or cells: Hi5 insect cells (baculovirus, secreted)
T1 sequence (P54760 17-196 K149Q): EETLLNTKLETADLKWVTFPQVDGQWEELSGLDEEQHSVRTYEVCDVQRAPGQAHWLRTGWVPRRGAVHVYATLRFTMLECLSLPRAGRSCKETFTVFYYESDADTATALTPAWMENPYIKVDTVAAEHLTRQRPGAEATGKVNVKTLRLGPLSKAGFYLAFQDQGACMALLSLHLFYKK
Method: (§1) This Example illustrates fluorescence polarization (FP) assays using a fluorescently-labeled reporter peptide to measure binding of various ligands to the EphB4-LBD.
(§2) All experimental data were analyzed using Prism 4.0 software (GraphPad Software Inc., San Diego, Calif.) and Kd values were generated by fitting the experimental data using a one-site binding hyperbola nonlinear regression model or equation 8.10 (.www.invitrogen.com/downloads/FP8.pdf).
(§3) The construct was sequence verified, and baculovirus was generated with homologous recombination into Sapphire Baculovirus DNA (Orbigen, San Diego, Calif.) following the manufacturer's protocol (10). The wtEphB4 construct was used as a template for generation of site specific mutants.

EphB4 A186S = molecular target: T2, EphB4 A186S (Homo sapiens, UniProt P54760, A186S); experiment: Fluorescence polarization binding of Alexa-532-TNYL-RAW, EphB4 A186S; conditions: FP; EphB4 mutant Ala186Ser
T2 construct: GP64 signal peptide (N, cleaved yes); made in house; host or cells: Hi5 insect cells (baculovirus, secreted)
T2 sequence (P54760 17-196 A186S): T1 sequence (P54760 17-196 K149Q) with Q133K, A170S
Method: as §1, §2, §3

EphB4 L95R = molecular target: T3, EphB4 L95R (Homo sapiens, UniProt P54760, L95R); experiment: Fluorescence polarization binding of Alexa-532-TNYL-RAW, EphB4 L95R; conditions: EphB4 Leu95Arg mutant
T3 construct: GP64 signal peptide (N, cleaved yes); made in house; host or cells: Hi5 insect cells (baculovirus, secreted)
T3 sequence (P54760 17-196 L95R): T1 sequence (P54760 17-196 K149Q) with L79R, Q133K
Method: as §1, §2, §3

EphB4 T147F = molecular target: T4, EphB4 T147F (Homo sapiens, UniProt P54760, T147F); experiment: Fluorescence polarization binding of Alexa-532-TNYL-RAW, EphB4 T147F; conditions: FP; EphB4 mutant Thr147Phe
T4 construct: GP64 signal peptide (N, cleaved yes); made in house; host or cells: Hi5 insect cells (baculovirus, secreted)
T4 sequence (P54760 17-196 T147F): T1 sequence (P54760 17-196 K149Q) with T131F, Q133K
Method: as §1, §2, §3

[1] = molecular target: T5, human EphB4 ephrin-binding domain, EphB4 (wt), EphB4 (17-196) (Homo sapiens, UniProt P54760); experiment: Isothermal titration calorimetry (ITC), wild-type EphB4; conditions: Table 5, receptor EphB4 (wt)
T5 sequence (P54760 17-196): T1 sequence (P54760 17-196 K149Q) with Q133K
Method: All mutants and ligands were dialyzed into buffer containing 50 mM Tris-Cl (pH 7.8), 150 mM NaCl, and 1 mM CaCl2 prior to use in isothermal titration calorimetry (ITC) experiments. All experiments were performed with a Microcal MCS ITC at 25° C. […] Data for these titrations were fit assuming a stoichiometry of 1 and at least 60% saturation at the final peptide concentration as described (19,34).
Peptides were dissolved into the same buffer used for the dialysis of EphB4. […] ITC experiments were performed with a Microcal MCS ITC at 25° C. Following an initial injection of 2 μl, titrations were performed by making 20 13 μl injections of peptide into EphB4 in the sample cell to produce an approximate final 2:1 ratio of injectant to sample in the cell. […] Prior to loading the sample cell, EphB4 was centrifuged at 18,000 g for 5 min at 4° C. to remove aggregates and degassed for 5 minutes at room temperature. […] Dilution data were fit to a line and subtracted from the corresponding titration data.

[2] = molecular target: human EphB4 (17-196) ligand binding domain, wild type (human); experiment: FP competition, unlabeled TNYL-RAW against Alexa-532-TNYL-RAW on wtEphB4 (FIG. 7)
[3] = molecular target: human EphB4 (17-196) K149Q mutant (human); experiment: FP competition, unlabeled TNYL-RAW against Alexa-532-TNYL-RAW on EphB4 K149Q (FIG. 7)
[4] = molecular target: human EphB4 (17-196) K149Q mutant (human); experiment: ITC
[5] = molecular target: human EphB4 (17-196) L95R mutant (human); experiment: ITC
[6] = molecular target: human EphB4 (17-196) K149Q mutant (human); experiment: ITC, 25 °C
[7] = molecular target: human EphB4 (17-196) ligand binding domain, wild type (human); experiment: ITC, 25 °C
[8] = molecular target: human EphB4 (17-196) K149Q mutant (human); experiment: ITC, 25 °C, 50 mM Tris pH 7.8, 150 mM NaCl, 1 mM CaCl2
[9] = molecular target: human EphB4 (17-196) ligand binding domain, wild type (human); experiment: as above
[10] = molecular target: human EphB4 (17-196) L95R mutant (human); experiment: ITC, 25 °C, 2 mM TNYL-RAW in the syringe, 15 µM EphB4 (L95R) in the cell; fit assuming stoichiometry of 1
[11] = molecular target: Alexa-532-TNYL-RAW peptide; experiment: fluorescence polarization, EphB4 titrated into 75 nM Alexa-532-TNYL-RAW
[12] = molecular target: Alexa-532-TNYL-RAW peptide; experiment: fluorescence polarization
[13] = molecular target: human EphB4 (17-196) K149Q mutant (human); experiment: ITC in phosphate buffer
[14] = molecular target: human EphB4 (17-196) L95R mutant (human); experiment: ITC, 25 °C
[15] = molecular target: human EphB4 (17-196) L95R mutant (human); experiment: ITC, 25 °C, 50 mM Tris pH 7.8, 150 mM NaCl, 1 mM CaCl2

CC[C@H](C)[C@H](NC(=O)[C@@H]1CCCN1C(=O)CNC(=O)[C@H](CC(N)=O)NC(=O)[C@@H]1CCCN1C(=O)[C@H](CO)NC(=O)[C@H](Cc1ccccc1)NC(=O)[C@H](CC(C)C)NC(=O)[C@H](Cc1ccc(O)cc1)NC(=O)[C@H](CC(N)=O)NC(=O)[C@@H](NC(=O)c1ccc(C2=c3cc4c(c(S(=O)(=O)O)c3Oc3c2cc2c(c3S(=O)(=O)O)NC(C)C2(C)C)=NC(C)C4(C)C)cc1)[C@@H](C)O)C(=O)N[C@@H](C)C(=O)N[C@@H](CCCNC(=N)N)C(=O)N[C@@H](C)C(=O)N[C@@H](Cc1c[nH]c2ccccc12)C(=O)O (stereo partly shown) [Alexa-532-TNYL-RAW] (X1-TNYLFSPNGPIARAW-OH; N-terminus and C-terminus assumed)
reduction in binding affinity versus wild type (EphB4 K149Q): 4-5 fold
reduction in binding affinity versus wild type (EphB4 A186S): 4-5 fold
binding of the peptide in FP assay (EphB4 L95R): did not exhibit significant binding
reduction in binding affinity versus wild type (EphB4 T147F): 4-5 fold

CC[C@H](C)[C@H](NC(=O)[C@@H]1CCCN1C(=O)CNC(=O)[C@H](CC(N)=O)NC(=O)[C@@H]1CCCN1C(=O)[C@H](CO)NC(=O)[C@H](Cc1ccccc1)NC(=O)[C@H](CC(C)C)NC(=O)[C@H](Cc1ccc(O)cc1)NC(=O)[C@H](CC(N)=O)NC(=O)[C@@H](N)[C@@H](C)O)C(=O)N[C@@H](C)C(=O)O [TNYL]
ΔH [1]: −9.6 ± 0.3 koal mol−1

LASPNGPIARAW [LFSP-RAW(F to A)]
ΔH [1]: −7.9 ± 0.9 koal mol−1

TNYL-RAW peptide
Ki [2]: 100 nM
Ki [3]: 170 nM
fold reduction of affinity against wild-type EphB4 [4]: 3 fold
fold reduction of affinity against wild-type EphB4 [5]: 500 fold
Kd [6]: 250 nM
TΔS [6]: -2.7 kcal/mol
ΔG [6]: -9 kcal/mol
ΔH [6]: -11.7 kcal/mol
Kd [7]: 71 nM
TΔS [7]: -4.9 kcal/mol
ΔG [7]: -9.8 kcal/mol
ΔH [7]: -14.7 kcal/mol
Kd [8]: 160 nM
TΔS [8]: -3.2 kcal/mol
ΔG [8]: -9.4 kcal/mol
ΔH [8]: -12.5 kcal/mol
Kd [9]: 71 nM
TΔS [9]: -4.9 kcal/mol
ΔG [9]: -9.8 kcal/mol
ΔH [9]: -14.7 kcal/mol
Kd [10]: 35900 nM
TΔS [10]: -5.8 kcal/mol
ΔG [10]: -6.1 kcal/mol
ΔH [10]: -12 kcal/mol

human EphB4 (17-196) A186S mutant (receptor)
Kd [11]: 16 nM

human EphB4 (17-196) K149Q mutant (receptor)
Kd [11]: 23 nM
assay window [12]: 12 fold

human EphB4 (17-196) R148S mutant (receptor)
Kd [11]: 4.5 nM

human EphB4 (17-196) R150V mutant (receptor)
Kd [11]: 6.1 nM

human EphB4 (17-196) RKR148-150SQV mutant (receptor)
Kd [11]: 21 nM

human EphB4 (17-196) T147F mutant (receptor)
Kd [11]: 25 nM

human EphB4 (17-196) ligand binding domain, wild type (receptor)
Kd [11]: 5 nM
assay window [12]: 6 fold

human ephrinB2 (extracellular domain; residues 25-187) (ligand)
ΔHobs [13]: 3.9 kcal/mol
Kd [6]: 20 nM
TΔS [6]: 14.1 kcal/mol
ΔG [6]: -10.5 kcal/mol
ΔH [6]: 3.6 kcal/mol
Kd [14]: 1900 nM
TΔS [14]: 13 kcal/mol
ΔG [14]: -7.8 kcal/mol
ΔH [14]: 5.2 kcal/mol
Kd [7]: 40 nM
TΔS [7]: 13.4 kcal/mol
ΔG [7]: -10.2 kcal/mol
ΔH [7]: 3.3 kcal/mol
Kd [8]: 20 nM
TΔS [8]: 14.4 kcal/mol
ΔG [8]: -10.6 kcal/mol
ΔH [8]: 3.7 kcal/mol
Kd [15]: 1900 nM
TΔS [15]: 13 kcal/mol
ΔG [15]: -7.8 kcal/mol
ΔH [15]: 5.2 kcal/mol
Kd [9]: 40 nM
TΔS [9]: 13.4 kcal/mol
ΔG [9]: -10.2 kcal/mol
ΔH [9]: 3.3 kcal/mol
